Measurements from patent publication US20060020110A1, “Synthetic peptides that bind to the hepatitis B virus core and E antigens” (priority 2000, published 2006).
Read-outs that look alike come from different tables or passages of the source.

What was measured:
[1] = target: T1, HBeAg (Hepatitis B virus genotype D subtype ayw, UniProt P0C573); assay: Binding of HBeAg to support-bound peptides (EIA); conditions: antigen at concentrations as low as 0.67 μg/ml, TABLE 8
T1 construct: containing nine residues of pre-core and the 150 first residues of HBcAg; made in house

[2] = target: T2, HBcAg (Hepatitis B virus genotype D subtype ayw, UniProt P03146); conditions: peptide contacted with HBcAg prior to antibody
Description: (§1) One approach to rational drug design involves sequential amino acid deletion of a known binding partner starting from either the amino or carboxy termini. Amino-terminal deletions of the binding partners of SEQ. ID. Nos. 5 and 17 were made and these peptide fragments were joined to a support and analyzed for the ability to bind HBcAg. […] ID. […] The amino-terminal deletions of the peptide of SEQ. ID. […] The amino-terminal deletion products of the peptide of SEQ. ID. […] ID.
(§2) Variations of the characterization assays described above include competitive binding assays. […] Initial experiments were conducted by contacting binding partner to HBcAg prior to introducing the antibody. […] ID. […] ID. […] ID. […] ID. […] ID. […] ID.

[3] = target: T2, HBcAg; conditions: for Lowest peptide concentration that prevented binding of mAb 4-2: peptide in the presence of mAb 4-2
Protocol: as §2

[4] = target: T2, HBcAg; conditions: for Binding to HBcAg (in words): support-bound peptides; for Binding of 10 μg/ml HBcAg to dilutions of support-bound peptide (in words): at low concentrations, TABLE 9
Description: as §1
To determine whether a candidate binding partner bound to HBcAg and/or HbeAg, a multimeric support-based binding assay was performed. Accordingly, synthetic peptides corresponding to the VH and VL domains of the sequenced mAbs were passively adsorbed to 96 well microplates in serial dilutions starting at 200 μg/ml. The peptide coated plates were then incubated with HBcAg and HBeAg serially diluted in PBS-GT. The amount of HBcAg and HBeAg bound by the peptides was then detected using a mAb directed to an epitope common to HBcAg and HBeAg (See Sällberg et al., J General Virology 74:1335-1340 (1993), herein expressly incorportaed by reference in its entirety) diluted 1:3000 in PBS-GT. The quantity of bound mAb was determined by addition by peroxidase labeled rabbit anti-mouse IgG (P260, Dako A S, Denmark). The plates were developed by incubation with ortho-phenylene-diamine (Sigma) and the absorbance at 492 nm was evaluated.
The converse of an aspect of this experiment was also performed. That is, various dilutions of support-bound binding partners (SEQ. ID. Nos. 5, 16, 17, 28, and 29) were contacted with 10 μg/ml of HBcAg and binding was evaluated. ID.

[5] = target: T1, HBeAg; assay: Redirection of HSV gG2 mAb to HBeAg on solid phase by fusion peptide in solution; type: binding; conditions: for gG2 mAb binding to indicated antigen on solid phase: HBeAg: fusion peptide in solution 20 μg/well
Description: (§3) ID. […] The specificity exchangers provided in SEQ. ID. […] Similarly, the specificity exchangers provided in SEQ. ID.

[6] = tested on: B cell - mediated antigen presentation of HBcAg to experienced T cells; assay: Inhibition of B cell-mediated antigen presentation of HBcAg to experienced T cells; type: cell-based, Balb/c mice
Protocol: A characterization assay that was used to evaluate the ability of a binding partner to modulate a host immune system response to HBV was conducted as follows. Groups of Balb/c mice were immunized subcutaneously with 20 μg HBcAg. Ten days later, draining lymph nodes were harvested and experienced CD4^+ T cells were purified using anti-CD4 coated magnetic beads (Dynal A S, Oslo, Norway) according to the manufacturers instructions. Naïve B cells were obtained from syngeneic mice, which had not been immunized. These B cells were used as antigen presenting cells in the characterization assay.
The ability of the different mAbs and peptides to block B cell uptake and antigen presentation of HBcAg-peptides to HBcAg-specific CD4+ T cells was then tested in vitro. The cell populations were mixed at a B/T cell ratio of 1:5 and added at a final concentration of approximately 2.5×10^5 to 5.0×10^5 cells per well in a 96 well microplate. Approximately, 20 μg of HBcAg was preincubated with the binding partner. The binding partner mixtures were then added to the cells and the plates were incubated for 26 to 96 hours at 37° C. The effect of the binding partners on T cell proliferation was determined by monitoring [^3H] thymidine incorporation.

[7] = target: T2, HBcAg; conditions: for gG2 mAb binding to indicated antigen on solid phase: HBcAg: fusion peptide in solution 20 μg/well
Protocol: To evaluate the efficacy of the specificity exchangers described above, several binding assays using a mAb specific for HSV gG2 were conducted. In one assay, the various specificity exchangers were coated onto microtiterplates and were bound with the mAb specific for HSV gG2. […] ID. […] In another assay, HBcAg was coated onto microtiter plates, specificity exchanger was added (20 μg/well), and the binding of the mAb specific for HSV gG2 was determined. […] ID. […] In another binding assay, HBeAg was coated onto microtiter plates, specificity exchanger was added (20 μg/well), and the binding of the mAb specific for HSV gG2 was determined. […] ID. […] The characterization assays used to evaluate binding partners can also be used and/or modified for the analysis of the specificity exchangers.

[8] = tested on: mAb specific for HSV gG2; assay: gG2 mAb binding to fusion peptide on solid phase; conditions: for gG2 mAb binding to indicated antigen on solid phase: fusion peptide: no addition of fusion peptide in solution; for Binding of mAb specific for HSV gG2 to coated specificity exchanger (in words): specificity exchanger coated onto microtiterplates
Description: as §3

[9] = concentrations as low as 50 μg/ml
[10] = concentrations as low as 100 μg/ml
[11] = peptide 100 μg/ml in the presence of mAb 4-2
[12] = peptide 200 μg/ml in the presence of mAb 4-2
[13] = antigen at concentrations as low as 0.67 μg/ml, TABLE 8
[14] = specificity exchanger 20 μg/well

T2 sequence (P03146 whole entry, the tested form may be a part): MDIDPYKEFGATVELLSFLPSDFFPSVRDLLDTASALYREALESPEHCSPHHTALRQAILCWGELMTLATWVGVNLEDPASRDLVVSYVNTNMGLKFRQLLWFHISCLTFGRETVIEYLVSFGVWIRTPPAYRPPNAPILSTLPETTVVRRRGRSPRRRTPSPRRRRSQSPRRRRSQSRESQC
T1 sequence (P0C573 21-179): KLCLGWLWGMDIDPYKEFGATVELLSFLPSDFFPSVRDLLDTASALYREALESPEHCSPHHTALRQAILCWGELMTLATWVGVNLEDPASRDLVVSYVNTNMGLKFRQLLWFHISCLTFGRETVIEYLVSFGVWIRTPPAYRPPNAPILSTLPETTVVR

Sequence	Binding to HBeAg (in words) [1]	Inhibition of mAb 4-2 binding to HBcAg (in words) ([2]; peptide 200 μg/ml)	Competition with mAb 4-2 for binding to HBcAg (in words) [3, 11]	Competition with mAb 4-2 for binding to HBcAg (in words) [3, 12]	Binding to HBcAg (in words) ([4]; TABLE 7)	Binding to HBcAg (in words) [4, 13]	Binding of 10 μg/ml HBcAg to dilutions of support-bound peptide (in words) [4]	gG2 mAb binding to indicated antigen on solid phase: HBeAg [5]	gG2 mAb binding to indicated antigen on solid phase: HBcAg [7]	gG2 mAb binding to indicated antigen on solid phase: fusion peptide [8]	also measured
CKASGYSFTGYNMNWVKQSH (Synthetically prepared amino acid sequence) [Peptide 26]	appreciable binding	able to inhibit binding of mAb 4-2	effectively competed with mAb 4-2	significantly inhibited	high affinity	appreciable binding					Inhibition of mAb 4-2 binding to HBcAg (in words) [2, 9]: appreciably reduced binding of mAb 4-2; Inhibition of mAb 4-2 binding to HBcAg (in words) [2, 10]: effectively reduced binding of the antibody
VKPGASVKISCKASGYSFTG (Synthetically prepared amino acid sequence) [Peptide 25]	appreciable binding	able to inhibit binding of mAb 4-2	effectively competed with mAb 4-2	significantly inhibited	high affinity	appreciable binding	appreciable binding at low concentrations				Inhibition of mAb 4-2 binding to HBcAg (in words) [2, 10]: effectively reduced binding of the antibody; Lowest peptide concentration that prevented binding of mAb 4-2 [3]: 12.5 µg/mL
QQKPGQPPKLLIKYASNLES (Synthetically prepared amino acid sequence) [Peptide 16]								0.022	0.038		Inhibition of B cell mediated antigen presentation of HBcAg to specific CD4+ T cells (in words) [6]: no inhibition; cpm ([3H] thymidine incorporation, T cell proliferation) ([6]; T + B cells, 20 μg HBcAg preincubated with inhibitor, positive control 573, background 110): 572 cpm; % inhibition of APC ([6]; T + B cells, 20 μg HBcAg, calculated from cpm versus positive control and background proliferation): 0%
VKPGASVKLSCKASGYIFTS (Synthetically prepared amino acid sequence) [Peptide 2]	appreciable binding	able to inhibit binding of mAb 4-2	effectively competed with mAb 4-2	significantly inhibited	high affinity	appreciable binding	appreciable binding at low concentrations				Inhibition of mAb 4-2 binding to HBcAg (in words) [2, 9]: appreciably reduced binding of mAb 4-2; Inhibition of mAb 4-2 binding to HBcAg (in words) [2, 10]: effectively reduced binding of the antibody; Lowest peptide concentration that prevented binding of mAb 4-2 [3]: 6.25 µg/mL
KLSCKASGYIFTSHRGGPEEF [SEQ. ID. No. 71]								0.638	0.550	1.622	Binding to immobilized HBeAg allowing binding of HSV gG2 mAb (in words) [5, 14]: appreciably bound the immobilized HBeAg; Binding of mAb specific for HSV gG2 to coated specificity exchanger (in words) [8]: appreciably bound the mAb; Binding to immobilized HBcAg allowing binding of HSV gG2 mAb (in words) [7, 14]: appreciably bound the immobilized HBcAg
KLSCKASGYIFTSEHRGGPEE [SEQ. ID. No. 70]								0.022	0.020	0.040	
LAVSLGQRATISCRASQSVS (Synthetically prepared amino acid sequence) [Peptide 13]	appreciable binding	able to inhibit binding of mAb 4-2	effectively competed with mAb 4-2	significantly inhibited	high affinity	appreciable binding	appreciable binding at low concentrations				Lowest peptide concentration that prevented binding of mAb 4-2 [3]: 6.25 µg/mL
VKLSCKASGYIFTSEHRGGPE [SEQ. ID. No. 73]								0.029	0.038	0.060	
VKLSCKASGYIFTSHRGGPEE [SEQ. ID. No. 75]								0.032	0.037	0.213	Binding of mAb specific for HSV gG2 to coated specificity exchanger (in words) [8]: appreciably bound the mAb
VKLSCKASGYIFTSGGPEEFE [SEQ. ID. No. 76]								0.024	0.025	0.018	
ISCRASQSVSTSSYSYMHWY (Synthetically prepared amino acid sequence) [Peptide 14]	appreciable binding	able to inhibit binding of mAb 4-2			high affinity	appreciable binding	appreciable binding at low concentrations				
